Data on 1 molecule can be found in article PMC3364216, “The RuvA Homologues from Mycoplasma genitalium and Mycoplasma pneumoniae Exhibit Unique Functional Characteristics”.

The target of the series is RuvAMge;RecUMge (Mycoplasma genitalium G37 (ATCC …, UniProt Q49424;Q49422 1-205;1-166, |)). Description: EMSA; 0.5 uM RecUMge preincubated, then RuvAMge; all RecU-HJ complexes shifted at 4 uM; 20 mM Tris-HCl pH 7.5, 1 mM DTT, 1 mM EDTA, 12.3 nM DNA, 10 ul, on ice 10 min; 8% PAGE in 0.5x TBE; +/- 10 mM Mg2+. A general note: In EMSA bound probe runs differently from free probe, usually more slowly.

B1: HJ 1.1 (structured_DNA)
DNA 1: GCGACGTGATCACCAGATGATTGCTAGGCATGCTTTCCGCAAGAGAAGC
DNA 2: GGCTTCTCTTGCGGAAAGCATGCCTAGCAATCCTGTCAGCTGCATGGAAC
DNA 3: GGTTCCATGCAGCTGACAGGATTGCTAGGCTCAAGGCGAACTGCTAACGG
DNA 4: ACCGTTAGCAGTTCGCCTTGAGCCTAGCAATCATCTGGTGATCACGTCGC
For the molecule B1, the binding result is “binds”.
